# Reference: US20260116920A1 (PEPTIDREAM, published 2026)
# “And” between values parts separate entries of the source, which are not always exact repeats. Equal values may be shown once. Starred links: 1 amine or outer side, 2 acyl side, 3 side chain; linkers in the order of their positions; H or OH if unused. Positions of bridges follow the written chain, without caps; N, C: chain ends. Non-standard residues stand in square brackets, D forms with d. Primed or numbered codes have the meaning given here. No end group written: not given here. E(PEG8Me) = (S)-30-amino-27-oxo-2,5,8,11,14,17,20,23-octaoxa-26-azahentriacontane-31-oic acid, COCCOCCOCCOCCOCCOCCOCCOCCNC(=O)CC[C@H](N[*:1])C(=O)[*:2]; Phe(4-OMe)(3) = (S)-2-amino-3-(4-methoxyphenyl)propanoic acid (source code F4OMe), COc1ccc(C[C@H](N[*:1])C(=O)[*:2])cc1; Trp(1-CH2CO) = O=C([C@H](Cc1cn(CC(=O)[*:3])c2ccccc12)N[*:1])[*:2]; NMePhe(3-Cl) = CN[C@@H](Cc1cccc(Cl)c1)C(=O)O; NMeY = CN[C@@H](Cc1ccc(O)cc1)C(=O)O; NMeF = CN[C@@H](Cc1ccccc1)C(=O)O
# Tests used:
# [1] = biological target: T1, human transferrin receptor (hTfR) (human, UniProt P02786 89-760); assay: SPR; A = KD <1 nM
# T1 construct: used as 0.5 uM hTfR dimer solution, immobilised on an NTA sensor chip (Ni capture plus EDC/NHS coupling); also called human TfR; TfR1
# T1 sequence (P02786 89-760 limits assumed): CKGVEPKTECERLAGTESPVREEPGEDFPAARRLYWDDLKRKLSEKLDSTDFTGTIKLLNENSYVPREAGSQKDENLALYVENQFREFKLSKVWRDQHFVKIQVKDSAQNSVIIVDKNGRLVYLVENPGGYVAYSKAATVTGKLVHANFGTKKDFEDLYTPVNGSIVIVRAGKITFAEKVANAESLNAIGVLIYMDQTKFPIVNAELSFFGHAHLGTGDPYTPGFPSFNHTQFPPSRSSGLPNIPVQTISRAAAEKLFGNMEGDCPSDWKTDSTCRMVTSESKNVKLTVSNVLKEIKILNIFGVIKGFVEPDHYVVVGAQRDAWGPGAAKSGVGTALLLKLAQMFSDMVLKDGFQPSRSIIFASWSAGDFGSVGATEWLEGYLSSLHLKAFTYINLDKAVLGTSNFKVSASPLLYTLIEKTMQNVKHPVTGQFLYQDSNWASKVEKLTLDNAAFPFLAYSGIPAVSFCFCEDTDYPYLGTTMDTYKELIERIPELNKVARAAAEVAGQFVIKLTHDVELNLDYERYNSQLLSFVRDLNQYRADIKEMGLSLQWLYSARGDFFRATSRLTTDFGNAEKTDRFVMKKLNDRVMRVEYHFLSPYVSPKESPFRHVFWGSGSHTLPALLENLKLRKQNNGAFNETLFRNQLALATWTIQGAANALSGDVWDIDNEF
# Experimental: NTA sensor chip (Global Life Sciences Technologies Japan K.K.) was inserted into BiacoreT200 (Global Life Sciences Technologies Japan K.K.), then the priming operation was performed three times by using running buffer containing: 10 mM HEPES pH 8.0 (Nacalai Tesque, Inc.), 150 mM NaCl (Nacalai Tesque, Inc.), 0.05% Tween 20 (Nacalai Tesque, Inc.), 0.1% BSA (SIGMA-ALDRICH) and 1.0% DMSO (FUJIFILM Wako Pure Chemical Corporation), and equilibrated at a flow rate of 30 μL/min. 350 mM EDTA solution was reacted at a flow rate of 10 μL/min for 60 seconds, 0.5 mM […] solution (Kishida Chemical Co., Ltd.) was reacted at a flow rate of 10 μL/min for 60 seconds, and then the NTA sensor chip was washed with 3 mM EDTA solution (Nacalai Tesque, Inc.) at a flow rate of 10 μL/min for 60 seconds. After mixing 50 μL each of 60 mM EDC solution (Global Life Science Technologies Japan K.K.) and 650 mM NHS solution (Global Life Science Technologies Japan K.K.), the reaction was carried out at a flow rate of 10 μL/min for 420 seconds. 150 μL of 0.5 μM hTfR dimer solution was prepared by dilution with running buffer and reacted at a flow rate of 10 μL/min for 300 seconds to immobilize hTfR on the NTA sensor chip. For the human transferrin receptor (hTfR), recombinant hTfR described in Example 2 of WO2018/124121 was used. After immobilization, capping was performed by reacting with 1.0 M ethanolamine solution (Global Life Sciences Technologies Japan K.K.) at a flow rate of 10 μL/min for 420 seconds. Peptide lysate prepared in DMSO solution to 10 mM was diluted with running buffer to be a final concentration of 10 μM peptide lysate, then peptide solutions of 100 nM, 50 nM, 25 nM, 10 nM, and 5 nM were prepared. Using the above samples, the kinetics of the peptide against hTfR was obtained by SPR measurement.
# (§1) The kinetic evaluation model was single-cycle kinetics, and curve fitting was performed using Biacore T200 Evaluation Software Version 3.0 (Global Life Science Technologies Japan K.K.). The binding of the peptide to hTfR was evaluated by performing curve fitting on the obtained sensorgram by least squares method and obtaining the KD value.
# [2] = biological target: T1, human transferrin receptor (hTfR); assay: SPR; ratio to 894_3151
# [3] = biological target: T1, human transferrin receptor (hTfR); assay: SPR, hTfR immobilised, single-cycle kinetics
# Experimental: (§2) NTA sensor chip (Global Life Sciences Technologies Japan K.K.) was inserted into BiacoreT200 (Global Life Sciences Technologies Japan K.K.), then the priming operation was performed three times by using running buffer containing: 10 mM HEPES pH 8.0 (Nacalai Tesque, Inc.), 150 mM NaCl (Nacalai Tesque, Inc.), 0.05% Tween 20 (Nacalai Tesque, Inc.), 0.1% BSA (SIGMA-ALDRICH) and 1.0% DMSO (FUJIFILM Wako Pure Chemical Corporation), and equilibrated at a flow rate of 30 μL/min. 350 mM EDTA solution was reacted at a flow rate of 10 μL/min for 60 seconds, 0.5 mM […] solution (Kishida Chemical Co., Ltd.) was reacted at a flow rate of 10 μL/min for 60 seconds, and then the NTA sensor chip was washed with 3 mM EDTA solution (Nacalai Tesque, Inc.) at a flow rate of 10 μL/min for 60 seconds. After mixing 50 μL each of 60 mM EDC solution (Global Life Science Technologies Japan K.K.) and 650 mM NHS solution (Global Life Science Technologies Japan K.K.), the reaction was carried out at a flow rate of 10 μL/min for 420 seconds. […]
# as §1
# [4] = biological target: T1, human transferrin receptor (hTfR); assay: SPR, hTfR immobilised; legend: low signal indicates no activity
# Experimental: as §2, §1
KD [1],KD (Each Peptide)/KD (894_3151) [2],Kd [3],Binder,binding result [4]
< 1 nM,1 and 1.4,1.3 nM and 1.8 nM,{CH2CO}-AV[NMeF]VWNYYIIRRY[NMeY]C (thioether N-15; not fully specified (C-terminus)) [894_3151],
,,,"{CH2CO}-AV[NMePhe(3-Cl)]V[Trp(1-CH2CO)]NY[Phe(4-OMe)(3)]IE[E(PEG8Me)][E(PEG8Me)]F[NMeY]C-NH2 (thioether N-15; also: linker G-de-de-de-ds-ds-KN3, attachment not given here) [894_3180]",no binding (tested: peptide tested up to 100 nM)
